Source: publication PMC8956514

Biological target: DNMT5 (Cryptococcus neoformans, UniProt J9VI03 58-2377)
Test: fluorescence polarization

Sequence of DNMT5 (J9VI03 58-2377): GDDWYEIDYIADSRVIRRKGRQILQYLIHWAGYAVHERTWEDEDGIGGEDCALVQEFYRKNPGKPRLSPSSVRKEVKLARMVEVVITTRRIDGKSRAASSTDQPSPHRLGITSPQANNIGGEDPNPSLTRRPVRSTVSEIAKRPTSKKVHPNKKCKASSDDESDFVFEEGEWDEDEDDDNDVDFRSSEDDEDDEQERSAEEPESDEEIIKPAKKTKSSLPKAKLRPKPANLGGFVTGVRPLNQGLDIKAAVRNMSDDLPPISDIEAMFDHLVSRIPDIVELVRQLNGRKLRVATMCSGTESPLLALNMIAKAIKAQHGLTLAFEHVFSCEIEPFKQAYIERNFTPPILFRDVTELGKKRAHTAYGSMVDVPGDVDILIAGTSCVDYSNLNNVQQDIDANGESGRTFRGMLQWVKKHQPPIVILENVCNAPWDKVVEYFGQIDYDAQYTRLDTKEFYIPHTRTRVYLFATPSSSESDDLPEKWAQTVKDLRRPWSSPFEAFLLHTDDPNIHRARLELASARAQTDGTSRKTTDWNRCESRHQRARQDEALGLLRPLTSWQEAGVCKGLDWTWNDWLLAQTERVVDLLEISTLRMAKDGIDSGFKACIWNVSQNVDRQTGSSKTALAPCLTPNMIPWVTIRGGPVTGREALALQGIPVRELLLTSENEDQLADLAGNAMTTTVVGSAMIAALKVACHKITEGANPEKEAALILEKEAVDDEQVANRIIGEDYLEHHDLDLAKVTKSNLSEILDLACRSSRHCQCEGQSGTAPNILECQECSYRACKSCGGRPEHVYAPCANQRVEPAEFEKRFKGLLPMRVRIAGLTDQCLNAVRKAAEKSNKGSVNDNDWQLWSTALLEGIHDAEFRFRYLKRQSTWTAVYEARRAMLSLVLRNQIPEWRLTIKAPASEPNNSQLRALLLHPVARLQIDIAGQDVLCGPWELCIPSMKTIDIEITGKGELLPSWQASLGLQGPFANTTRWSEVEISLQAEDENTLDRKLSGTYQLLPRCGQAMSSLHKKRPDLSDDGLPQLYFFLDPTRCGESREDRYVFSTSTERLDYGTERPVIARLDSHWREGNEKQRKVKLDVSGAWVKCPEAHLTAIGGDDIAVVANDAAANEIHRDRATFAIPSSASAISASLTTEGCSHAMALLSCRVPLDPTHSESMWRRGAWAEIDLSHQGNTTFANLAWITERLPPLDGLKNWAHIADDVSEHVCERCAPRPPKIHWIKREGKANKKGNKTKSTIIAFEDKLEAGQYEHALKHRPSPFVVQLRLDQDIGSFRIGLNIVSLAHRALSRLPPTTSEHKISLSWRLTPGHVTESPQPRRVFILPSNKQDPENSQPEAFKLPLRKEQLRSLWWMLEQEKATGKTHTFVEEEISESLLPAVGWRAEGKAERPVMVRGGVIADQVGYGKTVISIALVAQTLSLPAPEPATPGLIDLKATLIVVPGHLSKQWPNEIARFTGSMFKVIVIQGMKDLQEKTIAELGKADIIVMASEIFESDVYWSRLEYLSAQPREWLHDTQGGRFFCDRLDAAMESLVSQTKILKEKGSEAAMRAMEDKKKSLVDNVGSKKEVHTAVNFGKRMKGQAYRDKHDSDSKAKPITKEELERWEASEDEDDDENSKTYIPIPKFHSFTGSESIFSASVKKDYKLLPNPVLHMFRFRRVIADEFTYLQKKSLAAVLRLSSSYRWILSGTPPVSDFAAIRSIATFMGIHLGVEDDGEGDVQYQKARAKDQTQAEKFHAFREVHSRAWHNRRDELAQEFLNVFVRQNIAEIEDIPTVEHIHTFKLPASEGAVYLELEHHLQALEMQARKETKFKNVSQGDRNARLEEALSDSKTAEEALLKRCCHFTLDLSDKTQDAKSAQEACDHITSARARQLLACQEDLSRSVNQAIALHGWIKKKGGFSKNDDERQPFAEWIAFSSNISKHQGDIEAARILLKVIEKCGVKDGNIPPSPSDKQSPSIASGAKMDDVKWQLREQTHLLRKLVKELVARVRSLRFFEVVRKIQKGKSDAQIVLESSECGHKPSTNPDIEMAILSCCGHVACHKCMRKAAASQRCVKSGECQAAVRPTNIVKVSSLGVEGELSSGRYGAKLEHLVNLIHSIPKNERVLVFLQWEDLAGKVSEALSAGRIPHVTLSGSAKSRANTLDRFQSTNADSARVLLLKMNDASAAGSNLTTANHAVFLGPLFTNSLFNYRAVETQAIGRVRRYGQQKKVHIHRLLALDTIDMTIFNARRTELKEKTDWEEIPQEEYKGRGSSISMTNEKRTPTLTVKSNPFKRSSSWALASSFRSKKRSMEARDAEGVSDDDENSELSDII

B1: FAM-hmDNA (dsDNA)
DNA 1: CCATGCGCTGACACTAGAATTGCCTAAGACCATACA
DNA 2: TGTATGGTCTTAGGCAATTCTAGTGTCAGCGCATGG
modifications: 5-methylcytosine at position 30 of strand 2 (hemimethylated CpG)
binding signal: ~4 fold preference over umDNA
